Assay results published in publication PMC11369174, “Proteome-scale characterisation of motif-based interactome rewiring by disease mutations” (Molecular Systems Biology, 2024).
Values joined by “and” are separate entries in the source; they are usually repeats but may differ in a detail not shown here. Identical values can stand only once.

What was measured:
FITC-TCF3 = assay: fluorescence polarisation; saturation binding: dilution series of the protein domain added to 10 nM FITC-labelled peptide; 50 mM sodium phosphate pH 7.4, 0.05% Tween (protein dialysed in 50 mM sodium phosphate with 1 mM DTT; CASK kinase domain with 100 mM NaCl in addition); quadratic fit; technical triplets
[1] = target: MAP1LC3B ATG8 domain (human); assay: fluorescence polarisation; displacement: unlabelled peptide titrated onto a complex of FITC-labelled peptide (10 nM) and protein domain (1-2x KD); 50 mM sodium phosphate buffer pH 7.4 (CASK: plus 100 mM NaCl); KD calculated from IC50; technical triplets
ABL1 SH3 (human) = ABL1 SH3 (human) (UniProt P00519); assay: as above
[2] = target: MAP1LC3B ATG8 domain (human); assay: ITC; peptide titrated in tenfold excess in 16 injections against the protein domain; 50 mM sodium phosphate buffer pH 7.4, 1 mM DTT; iTC200
FITC-3BP2 = assay: fluorescence polarisation; saturation binding: dilution series of the protein domain added to 10 nM FITC-labelled peptide; 50 mM sodium phosphate pH 7.4, 0.05% Tween (protein dialysed in 50 mM sodium phosphate with 1 mM DTT; CASK kinase domain with 100 mM NaCl in addition); quadratic fit; technical triplets
[3] = target: MAP1LC3B ATG8 domain (human) (UniProt Q9GZQ8); assay: ITC; peptide titrated in tenfold excess in 16 injections against the protein domain; 50 mM sodium phosphate pH 7.4, 1 mM DTT; iTC200; wild-type in technical duplicate, mutant in technical triplets; one line of constants for each repeat
FITC-PER2 = assay: fluorescence polarisation; saturation binding: dilution series of the protein domain added to 10 nM FITC-labelled peptide; 50 mM sodium phosphate pH 7.4, 0.05% Tween (protein dialysed in 50 mM sodium phosphate with 1 mM DTT; CASK kinase domain with 100 mM NaCl in addition); quadratic fit; technical triplets
[4] = target: importin subunit α-3 (KPNA4) ARM domain; assay: fluorescence polarisation displacement; conditions: major pocket

Sequence of CREBBP KIX domain (Q92793 587-666): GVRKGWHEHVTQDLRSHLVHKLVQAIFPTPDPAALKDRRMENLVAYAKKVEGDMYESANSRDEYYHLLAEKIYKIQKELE
Sequence of ABL1 SH3 (human) (P00519 61-121): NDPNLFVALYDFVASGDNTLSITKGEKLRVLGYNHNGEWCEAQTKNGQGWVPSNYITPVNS
Sequence of ABL1 SH3 domain (P00519 61-121): as above

## CREBBP KIX domain (from UniProt Q92793 587-666) (domain or fragment)
FITC-TCF3
  Kd: 35 µM

## SQSTM1 334-349 wild-type peptide
[1]
  Kd: 0.5 µM

## TP53 64-80 P72R peptide
ABL1 SH3 (human)
  Kd: 560 µM

## BRCA2_(292-307) wild-type peptide
[1]
  Kd: 3.12 µM
[2]
  Kd: 20 to 100 µM

## BRCA2_(292-307) T298I/V299L/V300R peptide
[1]
  Kd: 0.52 µM
[2]
  Kd: 2 µM

## ABL1 SH3 domain (from UniProt P00519 61-121) (domain or fragment)
FITC-3BP2
  Kd: 3.7 µM

## BRCA2 292-307 peptide, mutant T298I/V299L/V300R
[3]
  stoichiometry N: 0.744 and 0.685 and 0.649

## Peripheral plasma membrane protein CASK (CASK) kinase domain (from UniProt O14936 12-276) (domain or fragment)
FITC-PER2
  Kd: 3.4 µM

## BUB1_(486-501) wild-type peptide
[1]
  Kd: 7 µM

## SQSTM1 334-349 P348L peptide
[1]
  Kd: 0.6 µM

## BRCA2 292-307 peptide, wild-type
[3]
  Kd: 109 µM and 63.7 µM and 18.2 µM
  stoichiometry N: 0.7 and 0.684

## BUB1_(486-501) S492F peptide
[1]
  Kd: 1.6 µM

## ABRAXAS1_(349-364) wild-type peptide R361Q
[4]
  Kd: 75 µM
